Data from article doi:10.1101/2025.11.22.689886 (bioRxiv, 2025).

Target: the molecule itself
Assay: SEC

B1: transdermal peptide-recombinant type III collagen fusion protein (other, human)
chain: FEGPASRPGFPGMKGHRGFDGRNGEKGETGAPGLKGENGLPGENGAPGPMGPRGAPGERGRPGLPGAAGARGNDGARGSDGQPGPPGPPGTAGFPGSPGAKGEVGPAGSPGSNGAPGQRGEPGPQGHAGAQGPPGPPGINGSPGGKGEMGPAGIPGAPGLMGARGPPGPAGANGAPGLRGGAGEPGKNGAKGEPGPRGERGEAGIPGVPGAKGEDGKDGSPGEPGANG
**Q.** How did the “stoichiometry N” value turn out when B1 was run?
**A.** The value was 3.
